Assay [1] deals with T1, full-length human ILT7 on cells (human, UniProt P59901 24-499). The assay is described as follows: cell-based or functional assay.
The target of assay [2] is T2, human ILT7-his protein (human, UniProt P59901 28-446).
T2 construct: also called human ILT7 protein
Kind of assay: ELISA, plate coated with human ILT7-his. The method, then:
Methods: The binding of the chimeric anti-ILT7 antibodies identified from the screening, including cmAb12, to human ILT7-his protein was measured by ELISA, along with an isotype antibody hIgG1 as negative control and a reference anti-ILT7 antibody Tab1. 96-well ELISA plates were coated with human ILT7-his in PBS (2 μg/ml) overnight at 4° C. Chimeric antibodies were added to the wells and co-incubated with the coating protein at 37° C. for 1 hour, followed by the addition of secondary HRP labelled antibody. After incubation at 37° C. for 1 more hour, TMB substrate was added to wells and incubated at RT for 15 min. 1 N HCl was added to terminate the reactions. The absorbance at 450 nm was measured with a microplate reader.
Methods: The binding affinity of the humanized cmAb12 antibody, hu-cmAb12, was further measured by surface plasmon resonance (SPR) technology with Biacore 8K. As used herein, “hu-cmAb12” refers to a specific antibody clone variant of the Hu12-04 antibody of Examples 8 and 9. The hu-cmAb12 antibody includes a VL having the amino acid sequence of SEQ ID NO: 19, a VH having the amino acid sequence of SEQ ID NO: 26, and a CH having the amino acid sequence of SEQ ID NO: 55. hu-cmAb12 or Tab1 were immobilized on CM-5 chip. The assay was performed at 25° C. and the running buffer was 1×HEPES (10 mM HEPES, 150 mM NaCl, 3 mM EDTA) with 0.005% Tween-20, pH 7.4. […]

The target of assay [3] is T1, full-length human ILT7 on cells. The assay is described as follows: flow cytometry on 293F-human ILT7 cells. The method, then: (§1) Methods: The binding affinities of chimeric anti-ILT7 antibodies identified from the screening, including cmAb12, to human ILT7 or cynomolgus ILT7 expressed on cell membrane were measured by flow cytometry. Vectors containing coding sequences for full-length cynomolgus ILT7 (SEQ ID NO: 6) and hFcεRiγ (SEQ ID NO: 7) were generated. […] Both cell lines were seeded, resuspended, and incubated with the chimeric antibodies at 4° C. for 1 hour. Cells were then washed with cold FACS buffer (PBS+2% FBS), resuspended, and incubated with secondary antibody at 4° C. for 1 hour. hIgG1 and Tab1 were used as controls.
(§2) Cells were washed with cold FACS buffer (PBS+2% FBS) by centrifuging, followed by addition of secondary antibodies, and incubation at 4° C. for 1 hour. An isotype control antibody and reference anti-ILT7 antibody Tab1 were used as negative and positive controls. The concentration-MFI curves of FACs were then determined.
A general note: In flow cytometry, cells or beads pass a laser one at a time.

The target of assay [4] is T3, full-length cynomolgus ILT7 on cells (cynomolgus, UniProt P59901 24-499 (human entry)).
T3 construct: also called CHOK1-cynomolgus ILT7 cells
T3 sequence (P59901 other isoform, or with tags, fused parts or gaps limits assumed): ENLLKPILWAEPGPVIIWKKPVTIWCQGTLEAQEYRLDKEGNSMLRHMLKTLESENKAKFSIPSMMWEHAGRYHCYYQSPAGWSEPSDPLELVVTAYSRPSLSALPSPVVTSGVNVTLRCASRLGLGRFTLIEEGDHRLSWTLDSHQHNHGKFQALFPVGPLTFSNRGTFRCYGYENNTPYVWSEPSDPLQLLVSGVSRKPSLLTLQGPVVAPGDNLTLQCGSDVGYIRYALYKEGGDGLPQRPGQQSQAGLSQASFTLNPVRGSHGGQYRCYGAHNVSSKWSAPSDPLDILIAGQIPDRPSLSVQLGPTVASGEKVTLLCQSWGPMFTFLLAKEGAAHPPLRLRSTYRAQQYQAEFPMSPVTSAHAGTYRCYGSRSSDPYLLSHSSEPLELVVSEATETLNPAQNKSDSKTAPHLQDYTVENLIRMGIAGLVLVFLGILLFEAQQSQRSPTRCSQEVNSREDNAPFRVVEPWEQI
Kind of assay: flow cytometry on CHOK1-cynomolgus ILT7 cells. The method, then:
as §1, §2

In assay [5] the target is T2, human ILT7-his protein. The assay is described as follows: SPR, Biacore 8K, antibody captured on the chip, human ILT7-his as analyte, 25° C. An excerpt: (§3) Methods: The binding affinity of the humanized cmAb12 antibody, hu-cmAb12, was further measured by surface plasmon resonance (SPR) technology with Biacore 8K. As used herein, “hu-cmAb12” refers to a specific antibody clone variant of the Hu12-04 antibody of Examples 8 and 9. The hu-cmAb12 antibody includes a VL having the amino acid sequence of SEQ ID NO: 19, a VH having the amino acid sequence of SEQ ID NO: 26, and a CH having the amino acid sequence of SEQ ID NO: 55. hu-cmAb12 or Tab1 were immobilized on CM-5 chip. The assay was performed at 25° C. and the running buffer was 1×HEPES (10 mM HEPES, 150 mM NaCl, 3 mM EDTA) with 0.005% Tween-20, pH 7.4. Diluted antibodies were captured on the sensor chip through Fc capture method. Human ILT7-his was used as the analyte, and running buffer was used as the dissociation phase. Similarly, ELISA was conducted as described above. An isotype control antibody and reference anti-ILT7 antibody Tab1 were used as controls.
(In general: In SPR one partner is held on a chip, and binding of the other changes the refractive index at the surface.)

For assay [6], the target named is T2, human ILT7-his protein. Kind of assay: SPR (Biacore 8K), antibody captured through Fc, human ILT7-his as analyte, 25 C.
Description: as §3

In assay [7] the target is T4, LILRA3/ILT6 (UniProt Q8N6C8 24-439). Kind of assay: ELISA, plate coated with 1 µg/ml LILR protein. The protocol: (§4) Methods: The binding specificities of the chimeric antibodies, including cmAb12, for ILT7 over its related 10 LILR superfamily member proteins were evaluated by ELISA. Plates coated with 1 μg/ml LILR superfamily protein as indicated were incubated with chimeric antibodies at 37° C. for 1 hour, followed by the secondary antibody.
T4 sequence (Q8N6C8 24-439 limits assumed): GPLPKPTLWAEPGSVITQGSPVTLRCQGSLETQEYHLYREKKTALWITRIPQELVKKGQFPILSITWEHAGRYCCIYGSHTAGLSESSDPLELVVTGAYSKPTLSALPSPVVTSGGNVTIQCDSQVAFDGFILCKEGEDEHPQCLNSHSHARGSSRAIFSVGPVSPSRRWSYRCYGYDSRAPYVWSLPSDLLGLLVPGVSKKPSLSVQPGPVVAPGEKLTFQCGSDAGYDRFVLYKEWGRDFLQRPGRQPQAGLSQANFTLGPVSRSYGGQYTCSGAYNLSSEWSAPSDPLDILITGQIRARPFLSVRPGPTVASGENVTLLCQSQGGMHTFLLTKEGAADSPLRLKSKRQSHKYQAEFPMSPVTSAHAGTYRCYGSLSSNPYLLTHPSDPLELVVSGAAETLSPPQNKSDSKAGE
For orientation: In an ELISA, binding on a coated surface is turned into a signal by an enzyme label.

The target of assay [8] is T5, LILRA5/ILT11 (UniProt A6NI73 42-268, limits assumed). Kind of assay: ELISA, plate coated with 1 µg/ml LILR protein. The protocol:
as §4

Assay [9] has as its target T6, LILRA6/ILT8 (UniProt Q6PI73 24-447, limits assumed). The assay is described as follows: ELISA, plate coated with 1 µg/ml LILR protein. The protocol:
as §4

The target of assay [10] is T7, LILRB1/ILT2 (UniProt Q8NHL6 24-461, limits assumed). Kind of assay: ELISA, plate coated with 1 µg/ml LILR protein. The method, then: as §4
T7 sequence (Q8NHL6 24-461 limits assumed): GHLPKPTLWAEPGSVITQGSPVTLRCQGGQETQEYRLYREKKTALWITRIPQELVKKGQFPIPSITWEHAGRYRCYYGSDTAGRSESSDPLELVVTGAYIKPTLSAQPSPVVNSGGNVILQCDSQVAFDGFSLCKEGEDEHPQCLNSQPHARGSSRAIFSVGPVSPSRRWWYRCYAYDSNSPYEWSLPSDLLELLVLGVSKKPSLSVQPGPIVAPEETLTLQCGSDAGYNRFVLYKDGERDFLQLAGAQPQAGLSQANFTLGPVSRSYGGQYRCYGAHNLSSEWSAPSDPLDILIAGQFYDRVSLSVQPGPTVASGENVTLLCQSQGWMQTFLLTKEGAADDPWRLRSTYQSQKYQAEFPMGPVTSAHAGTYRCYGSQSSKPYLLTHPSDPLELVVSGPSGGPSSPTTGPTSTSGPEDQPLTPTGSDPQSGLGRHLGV
The target in assay [11] is T8, LILRB2/ILT4 (UniProt Q8N423 22-460, limits assumed). Kind of assay: ELISA, plate coated with 1 µg/ml LILR protein. The protocol: as §4
T8 sequence (Q8N423 22-460 limits assumed): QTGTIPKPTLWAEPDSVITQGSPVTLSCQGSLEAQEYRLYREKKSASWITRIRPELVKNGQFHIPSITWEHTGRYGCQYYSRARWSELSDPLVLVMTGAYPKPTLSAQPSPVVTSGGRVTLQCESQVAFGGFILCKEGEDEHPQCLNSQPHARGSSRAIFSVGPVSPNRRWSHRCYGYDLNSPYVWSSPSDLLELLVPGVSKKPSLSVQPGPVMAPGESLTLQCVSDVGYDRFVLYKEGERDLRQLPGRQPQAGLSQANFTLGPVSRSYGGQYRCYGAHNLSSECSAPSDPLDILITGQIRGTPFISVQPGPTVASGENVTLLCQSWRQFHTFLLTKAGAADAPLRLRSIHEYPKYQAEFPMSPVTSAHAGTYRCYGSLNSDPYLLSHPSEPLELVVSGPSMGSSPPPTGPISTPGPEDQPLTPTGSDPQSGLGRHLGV
The target of assay [12] is T9, LILRB3/ILT5 (UniProt O75022 24-443, limits assumed). The assay is described as follows: ELISA, plate coated with 1 µg/ml LILR protein. The method, then:
as §4

Assay [13] has as its target T10, LILRB4/ILT3 (UniProt Q8NHJ6 22-259). The assay is described as follows: ELISA, plate coated with 1 µg/ml LILR protein. The protocol:
as §4

Assay [14] concerns the target T11, LILB5 (UniProt O75023 24-458, limits assumed).
T11 construct: also called LILRB5 (printed as LILB5)
Kind of assay: ELISA, plate coated with 1 µg/ml LILR protein. The protocol:
as §4

Assay [15] concerns the target T12, LILRA1 (UniProt O75019 17-461, limits assumed). Kind of assay: ELISA, plate coated with 1 µg/ml LILR protein. The protocol:
as §4

The target in assay [16] is T13, LILRA2/ILT1 (UniProt Q8N149 24-449, limits assumed). The assay is described as follows: ELISA, plate coated with 1 µg/ml LILR protein. The method, then: as §4
T13 sequence (Q8N149 24-449 limits assumed): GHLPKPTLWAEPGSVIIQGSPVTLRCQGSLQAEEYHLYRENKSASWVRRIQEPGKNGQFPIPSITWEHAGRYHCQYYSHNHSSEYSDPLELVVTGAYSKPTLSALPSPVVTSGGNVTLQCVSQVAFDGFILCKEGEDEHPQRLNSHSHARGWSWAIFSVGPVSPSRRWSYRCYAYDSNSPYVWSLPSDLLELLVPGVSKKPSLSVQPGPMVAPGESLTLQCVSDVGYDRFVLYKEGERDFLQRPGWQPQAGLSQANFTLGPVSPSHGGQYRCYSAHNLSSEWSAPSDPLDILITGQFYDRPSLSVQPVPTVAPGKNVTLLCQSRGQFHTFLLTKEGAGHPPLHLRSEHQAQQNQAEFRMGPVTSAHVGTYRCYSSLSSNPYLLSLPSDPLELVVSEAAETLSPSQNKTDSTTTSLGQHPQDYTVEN
Assay [17] addresses T4, LILRA3/ILT6. The assay is described as follows: ELISA, plate coated with 1 µg/ml LILR superfamily protein. The method, then: as §4
The target in assay [18] is T5, LILRA5/ILT11. The assay is described as above. The protocol: as §4
Assay [19] concerns the target T6, LILRA6/ILT8. Described as above. The protocol:
as §4

The target of assay [20] is T7, LILRB1/ILT2. The assay is described as above. The method, then:
as §4

Assay [21] has as its target T8, LILRB2/ILT4. The assay is described as above. The method, then: as §4
Assay [22] deals with T9, LILRB3/ILT5. The assay is described as above. The method, then: as §4
Assay [23] deals with T10, LILRB4/ILT3. The description is as above. The protocol: as §4
For assay [24], the target named is T11, LILB5. The description is as above. The method, then:
as §4

In assay [25] the target is T12, LILRA1. Described as above. The protocol: as §4
The target of assay [26] is T13, LILRA2/ILT1. Described as above. The method, then:
as §4

The target in assay [27] is T1, full-length human ILT7 on cells. The assay is described as follows: flow cytometry on 293F-human ILT7 cells, MFI.
The target is the same in assay [28]. The assay is described as follows: flow cytometry on 293F-human ILT7 cells, MFI. The source holds these as a separate data set.
The target in assay [29] is T3, full-length cynomolgus ILT7 on cells. Kind of assay: flow cytometry on CHOK1-cynomolgus ILT7 cells, MFI.
Assay [30] shares this target. Kind of assay: flow cytometry on CHOK1-cynomolgus ILT7 cells, MFI. The source holds these as a separate data set.
Assay [31] deals with T2, human ILT7-his protein. The assay is described as follows: ELISA, OD450; the x axis is labelled 'human ILT7 Conc (µg/ml)'.
Assay [32] addresses T2, human ILT7-his protein. Kind of assay: ELISA, plate coated with human ILT7-his, antibody titrated, OD450.

Numbering of substitutions follows the chain as printed.

T1 sequence (P59901 other isoform, or with tags, fused parts or gaps): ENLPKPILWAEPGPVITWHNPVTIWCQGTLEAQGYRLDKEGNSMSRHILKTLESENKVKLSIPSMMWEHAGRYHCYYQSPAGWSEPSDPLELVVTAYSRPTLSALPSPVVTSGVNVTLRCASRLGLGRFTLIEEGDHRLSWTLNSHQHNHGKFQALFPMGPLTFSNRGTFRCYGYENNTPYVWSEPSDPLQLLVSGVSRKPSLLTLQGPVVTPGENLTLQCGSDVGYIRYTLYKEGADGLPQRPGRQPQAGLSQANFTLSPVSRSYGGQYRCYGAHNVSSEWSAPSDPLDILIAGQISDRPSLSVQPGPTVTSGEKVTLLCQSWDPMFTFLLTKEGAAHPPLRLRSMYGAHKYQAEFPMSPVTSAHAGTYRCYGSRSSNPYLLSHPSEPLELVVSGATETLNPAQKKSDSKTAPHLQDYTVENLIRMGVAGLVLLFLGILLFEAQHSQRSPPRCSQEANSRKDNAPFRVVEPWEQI
T2 sequence (P59901 other isoform, or with tags, fused parts or gaps): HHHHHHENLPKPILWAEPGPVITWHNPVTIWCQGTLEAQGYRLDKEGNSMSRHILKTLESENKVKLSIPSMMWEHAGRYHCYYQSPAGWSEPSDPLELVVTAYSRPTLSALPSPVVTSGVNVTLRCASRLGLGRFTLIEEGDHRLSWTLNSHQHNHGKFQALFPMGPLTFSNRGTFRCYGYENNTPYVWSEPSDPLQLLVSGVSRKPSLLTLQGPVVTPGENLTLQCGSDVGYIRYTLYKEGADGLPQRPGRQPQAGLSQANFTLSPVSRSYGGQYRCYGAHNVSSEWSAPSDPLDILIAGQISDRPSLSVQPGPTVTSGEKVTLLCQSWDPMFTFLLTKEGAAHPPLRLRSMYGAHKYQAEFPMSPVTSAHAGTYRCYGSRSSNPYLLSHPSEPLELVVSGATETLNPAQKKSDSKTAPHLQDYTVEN
T5 sequence (A6NI73 42-268 limits assumed): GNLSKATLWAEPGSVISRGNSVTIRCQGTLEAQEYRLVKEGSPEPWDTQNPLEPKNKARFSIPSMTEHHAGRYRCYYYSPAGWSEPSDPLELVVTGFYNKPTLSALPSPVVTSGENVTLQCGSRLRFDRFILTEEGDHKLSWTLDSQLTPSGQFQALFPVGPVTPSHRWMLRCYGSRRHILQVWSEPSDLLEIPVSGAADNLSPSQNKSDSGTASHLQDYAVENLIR
T12 sequence (O75019 17-461 limits assumed): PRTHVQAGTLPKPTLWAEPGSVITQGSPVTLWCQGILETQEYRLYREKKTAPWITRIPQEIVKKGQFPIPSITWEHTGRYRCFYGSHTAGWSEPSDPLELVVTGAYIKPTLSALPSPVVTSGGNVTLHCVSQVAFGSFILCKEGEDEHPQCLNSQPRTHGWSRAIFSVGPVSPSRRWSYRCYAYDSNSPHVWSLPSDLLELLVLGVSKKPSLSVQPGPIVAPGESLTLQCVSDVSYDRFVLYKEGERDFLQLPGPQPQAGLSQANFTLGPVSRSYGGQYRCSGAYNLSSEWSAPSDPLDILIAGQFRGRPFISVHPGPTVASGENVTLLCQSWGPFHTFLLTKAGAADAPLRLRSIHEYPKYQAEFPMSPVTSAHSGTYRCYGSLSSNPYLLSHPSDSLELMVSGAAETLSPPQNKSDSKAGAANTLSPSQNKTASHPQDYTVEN
T11 sequence (O75023 24-458 limits assumed): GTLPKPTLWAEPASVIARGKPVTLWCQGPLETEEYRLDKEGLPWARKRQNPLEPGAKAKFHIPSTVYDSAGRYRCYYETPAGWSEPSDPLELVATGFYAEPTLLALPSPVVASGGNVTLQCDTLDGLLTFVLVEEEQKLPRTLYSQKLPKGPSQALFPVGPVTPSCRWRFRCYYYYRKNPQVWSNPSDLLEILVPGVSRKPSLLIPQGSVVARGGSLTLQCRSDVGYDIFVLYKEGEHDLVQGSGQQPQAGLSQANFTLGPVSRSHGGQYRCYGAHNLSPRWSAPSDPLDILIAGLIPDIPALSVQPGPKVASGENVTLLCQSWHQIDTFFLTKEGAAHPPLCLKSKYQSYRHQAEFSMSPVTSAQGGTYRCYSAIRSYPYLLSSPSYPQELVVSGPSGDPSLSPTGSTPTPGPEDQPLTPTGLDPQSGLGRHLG
T6 sequence (Q6PI73 24-447 limits assumed): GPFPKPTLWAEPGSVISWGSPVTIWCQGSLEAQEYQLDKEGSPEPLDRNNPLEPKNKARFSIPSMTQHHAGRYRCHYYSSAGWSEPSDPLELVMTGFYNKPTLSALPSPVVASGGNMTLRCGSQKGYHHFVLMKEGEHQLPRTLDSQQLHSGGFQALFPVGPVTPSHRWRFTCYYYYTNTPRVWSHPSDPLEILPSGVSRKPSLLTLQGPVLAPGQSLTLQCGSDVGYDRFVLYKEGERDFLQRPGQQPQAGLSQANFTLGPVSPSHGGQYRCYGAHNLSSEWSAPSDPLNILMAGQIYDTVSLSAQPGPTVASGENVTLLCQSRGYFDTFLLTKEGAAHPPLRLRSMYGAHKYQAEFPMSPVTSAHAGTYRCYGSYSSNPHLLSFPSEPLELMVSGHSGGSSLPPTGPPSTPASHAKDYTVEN

B1: humanized antibody hu-cmAb12 (antibody, V domains shown)
VH: QVQLVQSGAEVKKPGASVKVSCKASGYTFTEYPMHWVRQAPGQRLEWMGMIYTDTGEPAYAEEFKGRVTITRDTSASTAYMELSSLRSEDTAVYYCARELGQNFDYWGQGTTVTVSS
VL: DIVLTQSPASLAVSPGQRATITCRASQSVSTSSYSYMHWYQQKPGQPPKLLIYYASNLESGVPARFSGSGSGTDFTLTINPVEAEDTANYYCQHSWDIPYTFGQGTKLEIK
modifications: Example 12: the antibody was conjugated with the dye Alexa488, which the letters do not carry.
notes: also called antibody clone variant of Hu12-04
The EC50 is the concentration giving half of the maximal effect. The Kd is the concentration at which binding is half-saturated. Read a high Kd as a looser complex. As a reminder, the koff is the first-order rate constant of dissociation. Higher therefore signals a short-lived complex. A word on the kon: it is a measure of how fast the partners come together. A higher kon goes with fast association. Regarding B1, in [1], the “NK-dependent ADCC activity (% Cytotoxicity), EC50” value stood at 0.0038 nM; the “macrophage-dependent ADCP activity, EC50 (Donor 1)” value worked out at 0.881 nM; the “macrophage-dependent ADCP activity, EC50 (Donor 2)” value amounted to 2.17 nM; the “macrophage-dependent ADCP activity, EC50 (Donor 3)” value amounted to 1.58 nM. Moreover, the “neutrophil-dependent ADCC activity (% Cytotoxicity), EC50” value in assay [1] was 16.1 nM. This molecule also registered an EC50 in the assay with human ILT7-his protein [2] of 0.0791 µg/mL. The molecule further registered a concentration giving a half-maximal response (EC50) in assay [3] of 0.343 nM. This molecule also registered an EC50 in assay [4] of 1.65 nM. Binding with human ILT7-his protein [5] was characterised by a dissociation constant (Kd) of 111 nM. In the assay with human ILT7-his protein [6], this molecule registered a koff of 0.106 s⁻¹ and a kon of 959000 M⁻¹ s⁻¹.

B2: chimeric antibody Ab12 (cmAb12) (antibody, human IgG1, V domains shown)
VH: QIQLVQSGPELKKPGETVKISCKASGYTFTEYPMHWVKQAPGKGFKWMGMIYTDTGEPAYAEEFKGRFAFSLETSASTAYLQINNLKNEDTATYFCVRELGQNFDYWGQGTTLTVSS
VL: B1 VL with P15L, T22S, Y53K, T78N, N80H, A84E, N89T, Q104G
notes: also called chimeric Ab12
Consider B2, for which the EC50 with human ILT7-his protein [2] came to 0.0751 nM; in assay [3] it was 0.312 nM; in [4], 0.939 nM. Also, the “ELISA OD 450 nM” value with LILRA3/ILT6 [7] came out at 0.1 OD450; in the assay with LILRA5/ILT11 [8], 0.1 OD450; with LILRA6/ILT8 [9], 0.1 OD450; with LILRB1/ILT2 [10], 0.1 OD450; in the assay with LILRB2/ILT4 [11], 0.3 OD450; in the assay with LILRB3/ILT5 [12], 0.1 OD450. In addition, the “ELISA OD 450 nM” value in the assay with LILRB4/ILT3 [13] came out at 0.1 OD450; with LILB5 [14], 0.1 OD450; with LILRA1 [15] it was 0.1 OD450; in the assay with LILRA2/ILT1 [16] it was 0.2 OD450. The binding result with LILRA3/ILT6 [17], with LILRA5/ILT11 [18], in the assay with LILRA6/ILT8 [19], in the assay with LILRB1/ILT2 [20], with LILRB2/ILT4 [21] and with LILRB3/ILT5 [22] was “no binding” in each case. Moreover, the binding result in the assay with LILRB4/ILT3 [23], in the assay with LILB5 [24], with LILRA1 [25] and in the assay with LILRA2/ILT1 [26] was “no binding” in each case.

B3: benchmark antibody daxdilimab (Tab1) (antibody, V domains shown)
VH: QVQLQQSGAEVKKPGASVKVSCKASGYTFTSYGISWVRQAPGQGLEWMGWISAYNGNTNYAQKLQGRVTMTIDTSTSTAYMELRSLRSDDTAVYYCARNGLWGWDSDAFDIWGRGTLVTVSS
VL: QSALTQPASVSGSPGQSITISCTGTSSDVGGYNYVSWYQQHPGKAPKLMIYDVSNRPSGVSNRFSGSKSGNTASLTISGLQAEDEADYYCSSYTSSSTVVFGGGTKVTVL
On to B3, for which the “NK-dependent ADCC activity (% Cytotoxicity), EC50” value in [1] was found to be 0.0103 nM. Also, the 50% effective concentration (EC50) in [27] was 0.383 nM; in [28], 0.579 nM; in assay [29] it was 1.1 nM; in assay [30], 2.46 nM; with human ILT7-his protein [31], 0.0398 µg/mL; with human ILT7-his protein [32], 0.0682 nM. For the same molecule, the Kd with human ILT7-his protein [6] is 71.3 nM. Moreover, the koff in the assay with human ILT7-his protein [6] was 0.0278 s⁻¹. This molecule also registered a kon with human ILT7-his protein [6] of 390000 M⁻¹ s⁻¹.

These data come from US20260265373A1 (INMAGENE PTE, published 2026).
